Experimental findings from publication PMC5042399 are described below.

In assay [1] the target is DNA topoisomerase IIα (TOP2A), recombinant (UniProt P11388).
Assay [2] concerns the target DNA topoisomerase I (TOP1), full-length recombinant (UniProt P11387).
Chain of UniProt P11387 (P11387 whole entry): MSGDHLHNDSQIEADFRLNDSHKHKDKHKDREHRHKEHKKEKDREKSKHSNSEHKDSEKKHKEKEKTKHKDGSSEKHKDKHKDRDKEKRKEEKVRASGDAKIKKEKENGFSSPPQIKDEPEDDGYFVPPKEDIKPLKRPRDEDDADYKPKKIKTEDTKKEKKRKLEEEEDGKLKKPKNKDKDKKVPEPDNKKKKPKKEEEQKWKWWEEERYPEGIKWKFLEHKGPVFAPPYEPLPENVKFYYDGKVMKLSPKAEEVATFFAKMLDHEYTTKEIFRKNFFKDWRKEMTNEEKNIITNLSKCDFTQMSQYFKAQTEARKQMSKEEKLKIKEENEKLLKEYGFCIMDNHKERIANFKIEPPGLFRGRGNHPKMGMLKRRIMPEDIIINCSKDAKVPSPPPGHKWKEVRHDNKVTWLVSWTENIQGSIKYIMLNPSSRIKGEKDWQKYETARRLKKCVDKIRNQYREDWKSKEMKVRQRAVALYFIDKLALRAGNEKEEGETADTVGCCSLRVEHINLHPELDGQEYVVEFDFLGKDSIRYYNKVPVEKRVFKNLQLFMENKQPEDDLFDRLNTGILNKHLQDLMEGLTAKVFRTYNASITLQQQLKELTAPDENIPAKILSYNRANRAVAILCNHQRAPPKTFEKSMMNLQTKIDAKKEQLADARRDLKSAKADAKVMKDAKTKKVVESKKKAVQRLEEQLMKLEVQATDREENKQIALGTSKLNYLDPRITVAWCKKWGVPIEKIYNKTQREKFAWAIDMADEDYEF

Chain of UniProt P11388 (P11388 whole entry): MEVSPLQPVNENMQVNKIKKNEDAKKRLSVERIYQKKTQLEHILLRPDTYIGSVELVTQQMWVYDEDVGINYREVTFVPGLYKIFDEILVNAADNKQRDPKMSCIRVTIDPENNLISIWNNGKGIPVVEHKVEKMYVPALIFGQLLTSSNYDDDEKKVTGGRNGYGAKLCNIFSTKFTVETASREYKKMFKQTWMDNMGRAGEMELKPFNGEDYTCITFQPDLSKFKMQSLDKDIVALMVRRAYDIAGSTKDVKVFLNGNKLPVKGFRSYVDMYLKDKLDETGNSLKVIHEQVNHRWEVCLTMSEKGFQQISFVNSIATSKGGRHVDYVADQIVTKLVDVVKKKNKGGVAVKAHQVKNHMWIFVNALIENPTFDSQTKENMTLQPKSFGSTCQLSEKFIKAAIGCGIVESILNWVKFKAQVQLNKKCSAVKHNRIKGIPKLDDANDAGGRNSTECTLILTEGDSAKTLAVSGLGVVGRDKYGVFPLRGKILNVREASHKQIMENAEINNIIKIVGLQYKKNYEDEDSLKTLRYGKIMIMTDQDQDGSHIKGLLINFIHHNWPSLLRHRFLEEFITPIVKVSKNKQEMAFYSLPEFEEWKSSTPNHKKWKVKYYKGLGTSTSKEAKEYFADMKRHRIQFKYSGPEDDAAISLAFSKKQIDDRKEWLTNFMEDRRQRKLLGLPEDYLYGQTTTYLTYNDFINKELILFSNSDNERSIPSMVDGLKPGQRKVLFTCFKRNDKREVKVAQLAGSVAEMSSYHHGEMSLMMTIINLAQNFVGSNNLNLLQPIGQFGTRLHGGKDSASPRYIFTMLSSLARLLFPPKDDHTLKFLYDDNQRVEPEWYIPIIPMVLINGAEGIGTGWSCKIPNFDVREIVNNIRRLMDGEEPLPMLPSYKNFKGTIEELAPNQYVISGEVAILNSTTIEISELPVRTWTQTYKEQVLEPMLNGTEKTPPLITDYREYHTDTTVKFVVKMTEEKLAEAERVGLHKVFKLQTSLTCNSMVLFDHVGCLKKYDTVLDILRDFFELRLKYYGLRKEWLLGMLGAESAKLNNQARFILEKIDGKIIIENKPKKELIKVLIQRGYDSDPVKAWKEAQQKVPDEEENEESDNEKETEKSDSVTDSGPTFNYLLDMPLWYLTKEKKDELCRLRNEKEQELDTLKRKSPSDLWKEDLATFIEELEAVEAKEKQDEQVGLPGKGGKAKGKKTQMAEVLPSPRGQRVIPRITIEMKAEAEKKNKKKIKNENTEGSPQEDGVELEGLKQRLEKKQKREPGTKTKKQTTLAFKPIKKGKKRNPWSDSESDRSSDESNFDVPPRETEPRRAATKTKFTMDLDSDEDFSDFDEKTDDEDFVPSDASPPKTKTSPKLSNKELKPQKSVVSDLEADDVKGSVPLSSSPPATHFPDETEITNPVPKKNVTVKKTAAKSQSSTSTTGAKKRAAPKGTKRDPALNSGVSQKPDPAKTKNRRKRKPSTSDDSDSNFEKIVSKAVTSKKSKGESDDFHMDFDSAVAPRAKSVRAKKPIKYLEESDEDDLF

As for “BLM-Δ1332–1349, recombinant (from UniProt P54132 1-1417) (enzyme)”, the stimulation of BLM unwinding of dsDNA substrate by 7 nM TOP2A (fold change relative to minus TOP2A) in assay [1] stood at 3 fold.
For “BLM wild-type (WT), recombinant (from UniProt P54132 1-1417) (enzyme)”, in assay [2], the stimulation of BLM unwinding of RNA:DNA substrate by a two-fold molar excess of TOP1 (specific activity with against without TOP1) came out at 1.5 fold.
